Results from patent US20230248770A1 (published 2023).

Experiments:
[1] = target: T1, NEF peptide on HLA-A*24:02 (human); experiment: cytokine release
T1 peptide: RYPLTFGWCF

[2] = target: T2, WT1 peptide on HLA-A*02:01 (human); experiment: activation reporter or marker
T2 peptide: RMFPNAPYL

B1: FE11 γδTCR (TCR, V domains shown)
Vgamma: SSNLEGGTKSVTRPTRSSAEITCDLTVINAFYIHWYLHQEGKAPQRLLYYDVSNSKDVLESGLSPGKYYTHTPRRWSWILILRNLIENDSGVYYCATWDRPEIYYKKLFGSGTTLVVT
Vdelta: not shown
- binding result [1]: no recognition
- binding result [2]: no recognition
